Reference: article PMC4897736, “Structural and biochemical characterization of the cell fate determining nucleotidyltransferase fold protein MAB21L1” (Scientific Reports, 2016)
Blank lines part the entries; values can stand above or below the molecule they belong to.

Assays:
MAB21L1 [1] = molecular target: T1, MAB21L1 (Homo sapiens, UniProt Q13394); assay: ITC, thermal shift; type: binding
T1 construct: full length
T1 sequence (Q13394 1-359): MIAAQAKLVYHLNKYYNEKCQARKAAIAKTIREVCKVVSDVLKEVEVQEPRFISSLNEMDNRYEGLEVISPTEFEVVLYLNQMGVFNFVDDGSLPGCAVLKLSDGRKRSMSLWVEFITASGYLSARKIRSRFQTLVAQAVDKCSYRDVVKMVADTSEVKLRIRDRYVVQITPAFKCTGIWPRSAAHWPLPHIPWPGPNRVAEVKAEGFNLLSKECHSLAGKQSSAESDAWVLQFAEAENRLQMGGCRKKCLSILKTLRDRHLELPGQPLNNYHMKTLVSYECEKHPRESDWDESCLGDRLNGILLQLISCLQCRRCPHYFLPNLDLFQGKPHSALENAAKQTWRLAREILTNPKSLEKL

MAB21L1 [2] = molecular target: T1, MAB21L1; assay: co-crystal structure ([…] Å), ITC, thermal shift; type: binding
MAB21L1 [3] = molecular target: T2, MAB21L1 (Homo sapiens, UniProt Q13394 1-359); assay: EMSA; 0.5 uM nucleic acid; EMSA: 20 mM Tris pH 8.0, 200 mM NaCl, 30 min on ice, 1% agarose gel, Gel-Red stain; details: protein: recombinant; tags: His-MBP tag removed by TEV; label: none (Gel-Red stain); single strand
T2 sequence: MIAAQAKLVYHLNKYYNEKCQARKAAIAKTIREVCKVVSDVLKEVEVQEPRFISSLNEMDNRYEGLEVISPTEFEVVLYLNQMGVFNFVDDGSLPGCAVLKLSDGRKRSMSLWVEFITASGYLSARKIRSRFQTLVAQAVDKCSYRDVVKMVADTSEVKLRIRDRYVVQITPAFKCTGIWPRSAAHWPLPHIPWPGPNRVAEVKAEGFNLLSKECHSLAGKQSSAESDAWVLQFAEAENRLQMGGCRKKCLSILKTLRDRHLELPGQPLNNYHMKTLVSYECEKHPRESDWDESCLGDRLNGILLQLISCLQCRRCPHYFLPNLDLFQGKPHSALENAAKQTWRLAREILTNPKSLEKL

MAB21L1 [4] = molecular target: T2, MAB21L1; assay: EMSA; 1 uM nucleic acid; EMSA: 20 mM Tris pH 8.0, 200 mM NaCl, 30 min on ice, 1% agarose gel, Gel-Red stain; details: protein: recombinant; tags: His-MBP tag removed by TEV; label: none (Gel-Red stain); blunt

Molecule: Nc1ncnc2c1ncn2[C@@H]1O[C@H](COP(=O)(O)OP(=O)(O)OP(=O)(O)O)[C@@H](O)[C@H]1O [ATP]
Kd (MAB21L1 [1]): 340 nM

Kd (MAB21L1 [1]): 3100 nM
Molecule: Nc1ncnc2c1ncn2[C@@H]1O[C@H](COP(=O)(O)OP(=O)(O)O)[C@@H](O)[C@H]1O [ADP]

Kd (MAB21L1 [2]): 410 nM
Molecule: Nc1ccn([C@@H]2O[C@H](COP(=O)(O)OP(=O)(O)OP(=O)(O)O)[C@@H](O)[C@H]2O)c(=O)n1 [CTP]

Molecule: GGATACGTAACAACGCTTATGCATCGCCCCGCTACATCCCTGAGCTGAC (ssDNA) [50mer ssDNA]
apparent K (half saturation) (MAB21L1 [3]): 6.7 µM

B1: 50mer dsDNA (dsDNA)
DNA 1: GGATACGTAACAACGCTTATGCATCGCCCCGCTACATCCCTGAGCTGAC
DNA 2: GTCAGCTCAGGGATGTAGCGGGGCGATGCATAAGCGTTGTTACGTATCC
apparent K (half saturation) (MAB21L1 [4]): 6 µM

Molecule: GGAUACGUAACAACGCUUAUGCAUCGCCCCGCUACAUCCCUGAGCUGAC (ssRNA) [50mer ssRNA]
apparent K (half saturation) (MAB21L1 [3]): 3.3 µM

B2: 50mer dsRNA (dsRNA)
RNA 1: GGAUACGUAACAACGCUUAUGCAUCGCCCCGCUACAUCCCUGAGCUGAC
RNA 2: GUCAGCUCAGGGAUGUAGCGGGGCGAUGCAUAAGCGUUGUUACGUAUCC
apparent K (half saturation) (MAB21L1 [4]): 5 µM
